Source: patent publication US20180311331A1, “PROGNOSIS AND TREATMENT OF SQUAMOUS CELL CARCINOMAS” (THE REGENTS OF THE UNIVERSITY OF COLORADO, a body corporate, priority 2015, published 2018)

T1: IL-8 (Homo sapiens, UniProt P10145)
T1 sequence (P10145 21-99): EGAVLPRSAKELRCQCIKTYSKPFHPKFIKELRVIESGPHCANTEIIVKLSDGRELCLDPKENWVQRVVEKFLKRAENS

B1: Cxcl14: chemokine, approximately 9.5 kD secreted protein; tested by re-expression in MOE/E6E7 tumor cells (clones 8 and 16) (protein, UniProt Q9WUQ5 23-99, looked up)
C-X-C motif chemokine 14: SKCKCSRKGPKIRYSDVKKLEMKPKYPHCEEKMVIVTTKSMSRYRGQEHCLHPKLQSTKRFIKWYNAWNEKRRVYEE

How the values were obtained:
MDSCs = settings: without any effect on B and T cells, NK cells, or macrophages; cited from earlier work
[1] = system: CD8+ T, NK and Treg cells; experiment: Immune cell populations by flow cytometry in wildtype B6 mice bearing Cxcl14-expressing MOE/E6E7 cells; type: in vivo, mouse
Method: MOE/E6E7 cells with Cxcl14 (clones #8 and #16) or vector were injected into the right flank of B6 mice (n=3, each group). Tumor (A) and lymph nodes (B) tissues were harvested at 21 days post injection. Percentage of immune cell populations was determined by flow cytometry.
MOE/E6E7 cell clones expressing Cxcl14 (8 and 16) and one vector containing MOE/E6E7 cell clone were injected into the rear right flank of B6 mice (n=3, each group). Spleen was harvested at 21 days post injection and analyzed by flow cytometry. Relative abundance of Treg cells was determined using anti-CD4 and CD25 antibodies.
(§1) CXCL14 is an evolutionary-conserved chemokine showing 98% homology between human CXCL14 and murine Cxcl14. To determine whether CXCL14 affects tumor growth in vivo, the inventors studied mouse oropharyngeal epithelial cells (MOE/E6E7) that form tumors in immunocompetent syngeneic C57BL/6 (B6) mice. […] To test tumor suppressor functions of CXCL14, the inventors established MOE/E6E7 cell lines that re-expressed their physiological levels of Cxcl14. […] To characterize immune cell infiltration regulated by Cxcl14 expression, the inventors analyzed various immune cells in tumor tissue, tumor draining lymph node (TDLN), and in spleen harvested from the wildtype B6 mice at 21 days after injection with a control or with Cxcl14 expressing MOE/E6E7 cells. […]

[2] = system: myeloid-derived suppressor cells (MDSC); experiment: MDSC abundance by flow cytometry in tumor and spleen of Rag1-/- mice; type: in vivo, mouse; settings: mice injected with MOE/E6E7 cells re-expressing Cxcl14 vs empty vector, 23 days post injection
Method: MOE/E6E7 cell clones expressing Cxcl14 (8 and 16) and one vector containing MOE/E6E7 cell clone were injected into Rag1−/− mice (n=4, each group). Tumor (A) and spleen (B) were harvested at 23 days post injection, homogenized, and analyzed by flow cytometry. Relative abundance of MDSC cells (A & B) was determined using anti-MHCII, anti-Gr1, and anti-CD11b+ antibodies.
The chemokine receptors CXCR1 and CXCR2 are of primary importance for the migration of granulocytes to sites of inflammation. A recent study has shown that CXCR2 is also required for MDSC infiltration into tumors for cancer development. Additionally, blocking CXCR2-mediated MDSC infiltration enhances efficacy of anti-PD1 therapy. […] Thus, it is likely that CXCR2 ligands produced by HNSCC cells recruit MDSCs into the TME, and that CXCL14 expression interferes with IL-8 mediated MDSC infiltration. Thus, it will be verified that CXCL14 expression in HPV+ HNSCC cells reverses the immunosuppressive microenvironment by inhibiting Cxcr2-mediated MDSC expansion and infiltration. These experiments will determine novel mechanisms by which downregulation of CXCL14 triggers immune suppression in the TME.

[3] = system: splenocytes isolated from B6 mice; experiment: In vitro migration assay using the Transwell system; type: cell-based, mouse
Method: MOE cells with Cxcl14 or vector were cultured on the bottom chamber of a Transwell. Splenocytes were added to the upper chamber. After 12 hr incubation, migrated splenocytes to the bottom chamber were collected and analyzed by flow cytometry.
as §1
(§2) To determine whether CXCL14 affects tumor growth in vivo, the inventors utilized an HNSCC mouse model with MOE/E6E7 cells that form tumors in immunocompetent syngeneic mice. […] Next, the inventors determined whether CXCL14 directly induces chemotaxis of CD8^+ T and NK cells using the Transwell system and splenocytes isolated from B6 mice.

MOE/E6E7 cells [4] = experiment: Tumor growth and survival after injection of MOE/E6E7 cells expressing Cxcl14 into Rag1-/- B6 mice; type: in vivo, mouse
Method: (§3) Two MOE/E6E7 cell clones expressing Cxcl14 (clones 8 and 16) and one vector containing MOE/E6E7 cell clone were injected into the rear right flank of wildtype (A & B) and Rag1−/− (C & D) B6 mice (n=10, each group of wildtype; n=7, each group of Rag1−/). (A & C) Tumor growth was determined every week by the formula: volume=(width) 2×length. Survival rates were analyzed using a Kaplan-Meier estimator. (B & D) Time-to-event was determined for each group (vector only, Cxcl14-clone 8, Cxcl14-clone 16) with the event being tumor burden larger than 2,500 mm3. Deaths not associated with tumor were censored. P-values were determined by the Log-rank test.
(§4) CXCL14 is an evolutionary-conserved chemokine showing 98% homology between human CXCL14 and murine Cxcl14. […] To characterize immune cell infiltration regulated by Cxcl14 expression, the inventors analyzed various immune cells in tumor tissue, tumor draining lymph node (TDLN), and in spleen harvested from the wildtype B6 mice at 21 days after injection with a control or with Cxcl14 expressing MOE/E6E7 cells. […]
as §2

IL-8 = biological target: T1, IL-8; settings: another study; cited from earlier work
MOE/E6E7 cells [5] = experiment: Tumor growth and survival after injection of MOE/E6E7 cells expressing Cxcl14 into wildtype B6 mice; type: in vivo, mouse; settings: wildtype B6 mice injected with MOE/E6E7 cells expressing Cxcl14
Method: as §3, §4, §2

Row | Molecule | MDSC elimination in tumor-bearing mice (MDSCs) | Treg cells in spleens ([1]; B6 mice with tumors re-expressing Cxcl14, 21 days post injection) | Percentages of CD8+ T and NK cells in tumor tissues and TDLNs ([1]; wildtype B6 mice, 21 days after injection, vs vector containing cells) | MDSCs in tumors and spleens [2] | Migration of CD8+ T and NK cells to Cxcl14 expressing HNSCC cells ([3]; 12 hr incubation, compared to vector containing HNSCC cells) | Migration of macrophages and CD4+ T cells ([3]; CXCL14 expressing MOE/E6E7 cells, splenocytes from B6 mice) | Time to succumb to tumor burden (MOE/E6E7 cells [4]; Rag1-/- B6 mice injected with MOE/E6E7 cells re-expressing Cxcl14) [days post injection] | Tumor growth (MOE/E6E7 cells [4]; Rag1-/- mice injected with Cxcl14 expressing MOE/E6E7 cells) | Binding to IL-8 (IL-8) | Tumor clearance (MOE/E6E7 cells [5])
1 | Nc1ccn([C@@H]2O[C@H](CO)[C@@H](O)C2(F)F)c(=O)n1 [gemcitabine] | selectively eliminates MDSCs through apoptosis |  |  |  |  |  |  |  |  | 
2 | B1 |  | significantly decreased | highly increased | significantly decreased | 3-4 fold | little effect | ≤ 32 | delayed tumor growth | directly binds to IL-8 | a majority of B6 mice injected with MOE/E6E7 cells expressing Cxcl14 cleared tumors
